Measurements taken from the DeepSol protein solubility set.

Assay: soluble on expression in E. coli; label from the status in PepcDB or PDB records

Row | Sequence | soluble on expression in E. coli
1 | MSLRKIIPINNNWYFKADYEEGYEKVDDLRSFENVNLPHTNIELPYNYFDEKMYQIKSCYKYPLHISEKYRDKVIYIHFEGVMAYAQVYLNGLYIGEHKGGYTPFDIRIDEVYDWKKELNMLTVVVDSTERSDIPPKGGQIDYLTYGGIYREVSLGIYDDVFIKNIKVETHGIYDNEKSLNLIVHLENLNHQSGNVKFKVKINDKNGKEVFYKEFNTYLDAVKDVYSFNIENLKDIKLWDVDNPNLYEIKVGMKINNFSDEYDNKFGFREAVFKPDGFYLNGRKLKLRGLNRHQSYPYVGYAMPRRVQEKDAEILKNELHLNIVRTSHYPQSKHFLNKCDELGLLVFEEIPGWQYIGNSEWKKVAEQNLREMITRDWNHPSIILWGVRINESQDDDAFYKNMNKIAHEIDPTRQTGGVRYITNSSFLEDVYTFNDFIHDGINKPLRKQQEVTGLEHNVPYLVTEYNGHMYPTKRFDNEERQMEHCLRHLRIQNASYLDDSISGAIGWCAFDYNTHKDFGSGDRICYHGVMDMFRLPKFASYVYKSQVSPDIEPILEPVTFWARGERSIGGVIPLIIFTNCDYIELQYGNKTKIDNIYPNRDAYKGIPYPPIIIDYDIVKPEMIGAWGMVWEDLTLKGFYKGNKVIERKFSREPIPTYLYVVPDDTILSATQKDATRIVVKILDQYGNLLPFINEVIKIEIEGPAKLQGPNEVALIGGEGHHHHHH | soluble
2 | MSLAEKKERIRFMTVDDVDAVVRVEEQTFTVPWSREAFINEVTNNQFARYVVYEVGEQIVGYCGVWVVYDESHITNIAIHPDYRGEKRGEALLRYILEFARLLGAKKLSLEVRISNEIAQRLYRKFGFQAGGIRKNYYTDNQEDALVMWVMLSEGHHHHHH | soluble
3 | MGSDKIHHHHHHMSDTHIGAKSLTIEEREQDYYDTFQEAVEIAIDEKVDFIIHSGDLFDTWIPGNRSMKVFRDAMMKLNDRQIPVFYVFGDHDRPRRNSESAAGIFDFLGLHILGRDEFAGIEREFSGMKVFIGGISNMKGYLRNQLKEEYKKAESASTGYKNSILISHQALDPIFIPEQCEAKVNDLPMNYSYIAMGHLHDFVEREIGPLLSYPGSTELKSDREINGLLKMGKGINVIDLDNGVASLHRVKLKKVRYQFKVESDPENYLEEIKSILDKYANAIGEKKPIVNLIINGQISMEEVYEDLKKINGAIFNRPQILKIVDMPNVPSGSSELREYFQAFLKDQKLTDLAMKVFQHTADGDKEAIIREAAGEAIDN | not soluble
4 | MGSDKIHHHHHHMEFFSTRNKILSINPNGLRSTSIQLRERIWNVFYKEEYDYYDTLEYTSYTTGIEDMMLEMGIKYEFPANKIYKNQNAEKLHKHVVQCEGMWYRIYDFIEKYLRVTDSEKTQRLTIEFNRILEEEVAPYRILNGLVVPIIGKSELNSIGETIDLEYESVSKHMTKALELYSDRKKPDYENSVKESISSVESMCSIITGLSGGAATLGNTLKKLKENGVNIHPALENAFKQLYGYTSDSGGIRHGSIEFVNVASEDAKYMLVSCSAFVNYLTEKWIKYNLK | not soluble
5 | MNTMVKLPDSRWPGWRRRLYWWMHEAVEAEEVISLDLETTSLDPRRADILSIGAVLVRRGKLVMGERLELYVEPPPSLDAESIRIHKLRRADLEGQLQLEQALRQVLAFIGDRPLLGYYLSFDVAVLNRHLRQLLDRQLHNPSIEISSLYHRKVSRHFPDAHIDLRFDTLARALDVPVSGRHTALGDAQAVALMFMRLLKGPAPKVIH | not soluble
6 | MGSDKIHHHHHHVARLNAKQMEVFVAVMTHGSITAAGQRLNVSQPAVSRMIERFEQEAGFVAFERRRGKLVPTPEAEIFFAEVSQVYRGLDYLNEVAREIGTTRRGYLRVGVFPAFAEGWITERITRYVAGREELLTSLEPMSTDSVIEAVSRQTIDLGIALRASDREGLRSEEISSSEIVCILPKGHRLTGRPVLQPTDLSGEDFISMAAKVKARTSIDAVFDSSGVERRIRAETPWASTVCHMVAHGLGVGLVIRESAFEFAHLGYHIAAFKPRIDYRAYLITSTARPLSTAAKGFRDMLLLEFNQAKKAPRASKRWPT | not soluble
7 | MADAAPQLGKRKRELDVEEAHAASTEEKEAGVGNGTCAPVRLPFSGFRLQKVLRESARDKIIFLHGKVNEASGDGDGEDAVVILEKTPFQVEQVAQLLTGSPELQLQFSNDIYSTYHLFPPRQLNDVKTTVVYPATEKHLQKYLRQDLRLIRETGDDYRNITLPHLESQSLSIQWVYNILDKKAEADRIVFENPDPSDGFVLIPDLKWNQQQLDDLYLIAICHRRGIRSLRDLTPEHLPLLRNILHQGQEAILQRYRMKGDHLRVYLHYLPSYYHLNVHFTALGFEAPGSGVERAHLLAEVIENLECDPRHYQQRTLTFALRADDPLLKLLQEAQQS | soluble
